# Data taken from the DeepSol protein solubility set.
# Assay: soluble on expression in E. coli; label from the status in PepcDB or PDB records
row,Sequence,soluble on expression in E. coli
1,MKAVAINGYGTVGKRVADAIAQQDDMKVIGVSKTRPDFEARMALKKGYDLYVAIPERVKLFEKAGIEVAGTVDDMLDEADIVIDCTPEGIGAKNLKMYKEKGIKAIFQGGEKHEDIGLSFNSLSNYEESYGKDYTRVVSCNTTGLCRTLKPLHDSFGIKKVRAVIVRRGADPAQVSKGPINAIIPNPPKLPSHHGPDVKTVLDINIDTMAVIVPTTLMHQHNVMVEVEETPTVDDIIDVFEDTPRVILISAEDGLTSTAEIMEYAKELGRSRNDLFEIPVWRESITVVDNEIYYMQAVHQESDIVPENVDAVRAILEMEEDKYKSINKTNKAMNILQ,soluble
2,MKAVKATLMYDGLGNIEKNVYIIFDKDIVNITREKPKDVEVVAEGVVTPAFIDAHSHIGMDRYGEPYQESELNEQMDSVLPLADALYSIYMDDKAFKHSIEFGVLYSSILPGSGNIIGGKGVLIRNYGRDIEDAFIKYVGVKAAFGYNPRSTTNWKGLRPSTRMGAIGILFNWLIKTKKTISLLEKGKKDPEEIDPVIEALIPVLKGEMPLRVHAHKEDDIAVLLMIKRKFNLKVTVEHAADVHSKETFEKIKREGVPLVYGPLDAHPYKVELKHEDWKNAKYLLEVKPFFGLMSDHPFSIQANLYLQLRHFIRLGMSKAEAIKLITYNNAKILGIEDKLGSLEKGKWASLVVWNGDPFNLENYPTHVFAEGELIHEANL,soluble
3,MKCLVTGGNVKVLGKAVHSLSRIGDELYLEPLEDGLSLRTVNSSRSAYACFLFAPLFFQQYQAATPGQDLLRCKILMKSFLSVFRSLAMLEKTVEKCCISLNGRSSRLVVQLHCKFGVRKTHNLSFQDCESLQAVFDPASCPHMLRAPARVLGEAVLPFSPALAEVTLGIGRGRRVILRSYHEEEADSTAKAMVTEMCLGEEDFQQLQAQEGVAITFCLKEFRGLLSFAESANLNLSIHFDAPGRPAIFTIKDSLLDGHFVLATLS,soluble
4,MKCQKDDPICHLRDDMQDGDNSVNRTVSHLFQLTLTILTRVYSNLNEISLVCQSWNLHAESSGIYKIPQKVQISLLKTFETNREAKSKNLLDPVLLDQFANQSIRAHSLLLLPYSTTRYKTWTGKTFSKHNLIDEFVGKSFECATESFCPDPCCSGIPSVVRSSSKYAPLCKMNSCQKASTCIVKHFENDDLSKLRLNQFNVNCGCEEPGTIYRPDIGRCVHHNPCTKQSLCRDFGQECVNTASGYKCVCQLGYFRNGSNSCAPLKFSAPVYHGFALSEEMDEL,not soluble
5,MKCRKCGEPSVYHQKHSGNKYCRTCFIKETKRKVRKTLGRDVLKNNIKVAMGLSGGKDSLVMAYLLNEFYKEIPNSKIIAIMVNEGIEGYRLDGIEAAVKFCEKHDIEYKIVQFKDYLGTNLDEIVKLAKEKNLTMNPCSFCGVIRRKILNRVSIEEKCDFLAIGHNLDDIAQAVMMNYIEGDVKKLAFLGKSLKHPKFVKRIKPLEKIPEDEVLLLADMLELTYHKSPCPYSCLSFRSEVSEITDTLEKNHPGTKYSIVRGYERLLEHIELPGYTGECKICGDLSATEVCKVCSYLKNLGILEKSKFEKI,not soluble
6,MKDHSGISFGKNPTVLAIENYIRENGLTPGDVLPSEAAICEHLSVSRSSVREAMRTLASLDVVEIRHGHGTYVGKMSMAPLVNGMVLRLTLNEKSAIENLQHVVGMRIALDRSNAQELAAYYKGRETPKLDQIVEEMKIQFERGESFEHQDFLFHQLLNDHLSNPLMQEFSMALWEIHTRVVPRLGLRDPEDISNTVQAHAHMVEALRAGDVDKLLETIDEHYQPLLSILEKNRQYVEQTEHAVESQKGTLHL,not soluble
7,MKDILIIAGPTAVGKTDISIKIAQKMNGEIISADSMQIYKYMDIGSAKVTKEEMKGIKHHLIDVVDPSEEFSVASFKKMAQNAIDDITSRKKYPIIVGGTGLYINSLICNYDFTGAYKDEAYRESLQAIAKDKGKEYLHEKLKNIDIDSYKKLYPNDLKRVIRALEVYKITGKTISELNSNVDLYDIPYNIHYFILNMDRQKLYERINLRVDIMLRNGLVDEVIKLRDMGYNSNMQSMKGIGYKEILSYLEGCITLEEAVELIKKGSRHYAKRQLTWFRKDERAVWINKDIYKNDDDIVFKILSSIEEILEHHHHHH,not soluble
8,MKDKQLRLRIYRSAFSSMKNAIVEKAREFGVPVILVDPSYTSSICPVHGSKIIYQPDGGSAPRVGVCGKGGERWHRDVVALYNLRKRAGDVLEHHHHHH,not soluble
9,MKDLIIIGAGQAGLTMGYYLKQEGYNFLLLEAGNRVGDSWRNRYDSLQLFTPRSYSSLPGMALIGEKNEFPYKDEIATYLEEYARHFQLPVQLQTEVLKIRKEKGIFELHTSTEILQTKKVIIATGGFQQPFIPSVSANLSSHVFQIHSSQYKSPSQIPQGKVLVVGGGNSGMQIAVEFAKTHEVTMSISHPLTFLPLHFFRKSIFNWLEKLGLLYAEVSTKRGKWFQKRKDPLEHHHHHH,soluble
10,MKDSSRAELMRKVQETSFACVDMNLYLDNHPDDKNAINTYNSLCNQFAQARYAYENKYGPLTNFGYAPSRCPWQWADQPWPWDREFNYLEHHHHHH,soluble
11,MKDTVKSLKQELQTITHWEHSQKDLWFWEKLGRLPFQVLDKLTPKVVHRKLGQLLDELGSYIQSGGQYLVNEGKVLDKLGVSSLAEVPHLPLETMDRVCDELIDARVTFAQLQGAATGIGGALTLAVDIPALLGLALKTLQEIAIVYGYDPKEKEERVFVVKCLQFAAADIVGKKAILDELSSFSNERGRVFSELQGWREVMMTFRDQYGWKKLFQAVPIIGVIFGSLFNKSFMEDIAETGKMLYRKRRIIEKLKQFEPGI,not soluble
12,MKDYIRSVLDVVAESPFVPLETHARKGVLAVEKLSEAMEAYCTGNQALLDERTEEIDVLEHEADKIKQKIRASIPSSVRLPVNKKDLLSFLKQQDSIADFAQASAYWMTLRPCKDLPDEIKEGFLELMATSLKTARMYDRLVGELYKLLATSFSKEEIKETLQLVPEVEKLEHDVDVLETALLKKIFEHESAIGGAGVCHLMGLVERIGGIADKSASAADRLRSMILRRLEHHHHHH,soluble
13,MKEIDIIQQIKLGEVSKVQFKERLLDNYDIGCELVAFSNARGGTLVVGAVDKTGNINPLSYLEVQETTNTLSNIASENVVPAILVDVETISVDGGSLVVAHIKEGLNKPYHDNRGIVWVKNGADKRKVFDNAELAEMMTDCGSFSPDEAGVRDATIKDLDEGTIKTFLSNKFDKVLARKGLVGDAFREASLDTVCSAIASGHNGEKLLRNLRFIRPDGKITVAAMLLFGKYTQRWLPMMTAKCICFVGNNLGGTQFRDKVNDADIEGNLLHQFETIMDFFTRNLRHIQVGNEFNSQGVLEIPYTSLVEFTVNALVHRSLNATAPIRIFIFDDRVEIHSPGILPNGLTVDDIVIGTSMPRNMFLFTNAIHLLPYTGAGSGMLRALSEDVNVSFTNNDRTNEFVITINRQISNQPNADSDTDLDTDSDTFNADSDTKLRYSDTDLDTDSDTFNADSDTIRPKITNKQRDIVNFCSVPRSSKEILERVGVTYHSKNIQTYIMSLIEAGYLEMTNPEHPNASNQKYRRSKKLEHHHHHH,soluble
14,MKEIKLILTDIDGVWTDGGMFYDQTGNEWKKFNTSDSAGIFWAHNKGIPVGILTGEKTEIVRRRAEKLKVDYLFQGVVDKLSAAEELCNELGINLEQVAYIGDDLNDAKLLKRVGIAGVPASAPFYIRRLSTIFLEKRGGEGVFREFVEKVLGINLEDFIAVIQ,soluble
15,MKEIKVIIAGPRGRMGHEAVLLMERTEHFNLVAAVDYKHGGEKISDLPGMPALHAPIYADLHTCLDEVEADVLLDLTTPEVGKQHVTLAVERGLRSVIGTTGFTEEELTRLTENAKEKAVGTIIAPNFAIGAVLMMKFSQMAAKYFQDVEVIELHHDQKLDAPSGTAVKTVELIRQNRESKQQGHPNEVEQLAGARGANVDGIHIHSVRLPGLIAHQEVMFGGDGQMLTVRHDSFNRASFMSGVKLSIETVMNLDHLVYGLENIID,not soluble
16,MKEKDLIRFMDRMIEERKAEYALGTAHIYQASRNALSAFLKAHDIPFKRVRPELLKQFERFLRRRGNSWNTVSTYMRVLRAVYNRAVDRRLAPHVPHLFKAVYTGTQADIKRALKAEEMGQLLDTKCTRKQSELLQKTHHLFVLMFLLRGLPFVDLAYIQKKDLNGNILTYHRRKTGRQITITVTKDAMNIIREYMDTTTESPYLFPILSAEGGEDTIYREYQQALRIFNYQLTKLGELLGLTTELTSYTARHTWATLAYYLEVHPGIIREAMGHSSIKVTETYLKPFNIKKLDETNLSIIGYAKRSFEG,not soluble
17,MKEKIPFYNEKEFHDMVKKTKKGTFSGWYIIDKDNNSVEFSGKFNRQFKLNKPVIPVNTEYVTRKEFNEYKNSNDQRLTKIETTLAAQGEQINKLTQTVEKQGEQINQLVQVVLLHGEQINKLTQTVEKQGEQIKELQIEQKAQGETLKLILQTLQKMSDRLDKMEVKMDKMEVKMDKMEVKMDKMEKRIDKLESKLEHHHHHH,not soluble
18,MKEKISEKEYKALIRKIGKEHFDGEKEEYGDGTVGVWTYELRKYKLKPPVKVKYVTQEQFQEYKDSNNQRLIKIETTLAAQGEQIRIQVEQIKELQIEQKAQGETLKLILQTLQKMSDRLDKMEVKMDKMEEKMDKMEGKIDKIENRMDKMEVKMDKMEKRIDKLESKLEHHHHHH,not soluble
19,MKELRRFHLDHDFKIRDWVVVLNEIVVSRWDEVRREKVYRIGFQEFDCSDGWDIEREDGTIATVVFVKSSFDFFVWSK,not soluble
20,MKEPVKPTVKLAEIPPREPRFTPEQERIYARLSVHDPFNMLSEQHKANLIQLMTHGLGYRPIQLS,not soluble
21,MKETNGIPARLRQVAVIRDGPRQETVVLEADGMYYIKGETVYLQFAEENELGRVNNIVKIAPDEVTVLRSGAVEMRQTSRRRQETSGHYGTVFGRWALAAKTSSMEFHYDERRKKGRLFLSYELMLGDERSGRHTLTLTFKGV,not soluble
22,MKETVTMLNQQYVVPEGLQPYQGVTANSPWLASETEKRRRKICDSLEEAIRRSGLKNGMTISFHHAFRGGDKVVNMVMAKLAEMGFRDLTLASSSLIDAHWPLIEHIKNGVVRQIYTSGLRGKLGEEISAGLMENPVQIHSHGGRVKLIQSGELNIDVAFLGVPCCDEFGNANGFSGKSRCGSLGYAQVDAQYAKCVVLLTEEWVEFPNYPASIAQDQVDLIVQVDEVGDPEKITAGAIRLSSNPRELLIARQAANVIEHSGYFCDGFSLQTGTGGASLAVTRFLEDKMRRHNITASFGLGGITGTMVDLHEKGLIKALLDTQSFDGDAARSLAQNPHHIEISTNQYANPASKGAACERLNVVMLSALEIDVNFNVNVMTGSNGVLRGASGGHSDTAAGADLTIITAPLVRGRIPCVVEKVLTTVTPGASVDVLVTDHGIAVNPARQDLLDNLRAAGVALMTIEQLQQRAEQLTGKPQPIEFTDRVVAVVRYRDGSVIDVIRQVKG,soluble
23,MKFGNFLLTYQPPELSQTEVMKRLVNLGKASEGCGFDTVWLLEHHFTEFGLLGNPYVAAAHLLGATETLNVGTAAIVLPTAHPVRQAEDVNLLDQMSKGRFRFGICRGLYDKDFRVFGTDMDNSRALMDCWYDLMKEGFNEGYIAADNEHIKFPKIQLNPSAYTQGGAPVYVVAESASTTEWAAERGLPMILSWIINTHEKKAQLDLYNEVATEHGYDVTKIDHCLSYITSVDHDSNRAKDICRNFLGHWYDSYVNATKIFDDSDQTKGYDFNKGQWRDFVLKGHKDTNRRIDYSYEINPVGTPEECIAIIQQDIDATGIDNICCGFEANGSEEEIIASMKLFQSDVMPYLKEKQ,soluble
